Measurements taken from publication PMC3931302.

Columns and labels:
[1] = biological target: GST-HTTex1p 20QP (unexpanded HTT exon 1 with the proline-rich region); test: pull-down
[2] = biological target: GST-HTTex1p 51QP (expanded HTT exon 1 with the proline-rich region); test: pull-down

percent of 35S-labeled PIAS1 bound [1]: 7.75%
percent of 35S-labeled PIAS1 bound [2]: 7%
Substance: radiolabeled human PIAS1 (from UniProt O75925-1 1-651) (natural protein)
